According to article doi:10.1101/2025.10.17.683039:

Key:
[1] = biological target: Enoyl-CoA carboxylase/reductase (ECR) from Burkholderia ambifaria (Burkholderia ambifaria); assay: SEC; S200 column; each protein alone (1 mL) and a mixture of equal volumes (500 uL each) of the two proteins; peaks compared
[2] = biological target: Enoyl-CoA carboxylase/reductase (ECR) from Mesorhizobium metallidurans (Mesorhizobium metallidurans); assay: as above
[3] = biological target: Enoyl-CoA carboxylase/reductase (ECR) from Mesorhizobium metallidurans (Mesorhizobium metallidurans); assay: crystal structure; apo ECR, space group C 1 2 1, 100 K, 1.40 Å, molecular replacement with PDB 6NA3

Row | stoichiometry N [1] | stoichiometry N [2] | stoichiometry N [3] | Substance
1 | 4 | – | – | Enoyl-CoA carboxylase/reductase (ECR) from Burkholderia ambifaria (enzyme)
2 | – | 2 | 2 | Enoyl-CoA carboxylase/reductase (ECR) from Mesorhizobium metallidurans (enzyme)
